Experimental data taken from the nanobody polyreactivity screen of Harvey et al. (2022).

Assay: yeast display, Sf9 membrane polyspecificity reagent, FACS + sequencing; frameworks hold sequencing errors
How it was run: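 In a synthetic yeast display library (Saccharomyces cerevisiae BJ5465), nanobody expression was induced with galactose for 36–48 hours. FACS gates were set low and high (top ~1%) using anti-HA fluorescence for expression and streptavidin fluorescence for binding of the Sf9 membrane reagent. Each polyreactivity label is drawn from the gate of origin.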

Sequence | polyreactivity (PSR sort gate)
QVQLVESGGGLVQAGGSLRLSCAASGLTFVYYVLGWYRQAPGKESELVAAITDGGSTYYADSVKGRFTISRDNAKNTVYLQMNSRKPEDTAVYYCAADYYWLYGRWGVDYWGQGTQVTVSS | high polyreactivity
QVQLVESGGGLVQAGGSLRLSCAASGSTLYANAMGWYRQAPGKEMALVAAITRTGGNTYYADSVKGRFTISRDNAKNTVYFQMNSLKPEDTAVYYCAARNPPTDHTGYQSSVLPGRYYWGQGTQVTVSS | low polyreactivity
QVQLVESGGGLVQAGGSLRLSCAASGSIFSRYTMGWSRQAPGKERELVASISRRGGRTYYADSVKGRFTISRDNAKNTVYLQMNSLKPEDTAVYYCNTRTPAEYTPYGYDYWGQGTQVTVSS | high polyreactivity
QVQLVESGGGLVQAGGSLRLSCAASGRIFIIYAMGWYRQAPGTEREFVAAITSSGGSTYYADSVKGRFTISRDNAKNTVYLQMNSLKPEDTAVYYSAADSTEYTGDASYIGYDYWGQGTQVTVSS | high polyreactivity
QFQLVESGGGLVQAGGSLRLSSAASGRTFLSYTMVWYRQAPGKERQFVAAITTSGGSTNYADSVKGRFTISRDNAKNTVYLQMNSLKAEDTAVYYCADEWSVYFYDPRSDYWGQGNQVTVSS | high polyreactivity
QVQLVESGGGLVQAGGSLRLSCAASGRIFRRYAMGWYRQAPGKERELVASITWGGSSTSYADSVKGRFTISRDNAKNTVYLQMNSLKPEDTAVYYCNADFPTAIPYGYDYWGQGTQVTVSS | low polyreactivity
QVQLVESGGGLVQAGGSLRLSCAASGYTFVLNAMGWYRQAPGKEREFFAAITWSGGSTYYADSVKGRFTISRDNAKNTVYLQMNSLKPEDTAVYYCARSSRGKLDYWGQGTQVTVSS | low polyreactivity
QVQLVESGGGLVQAGGSLRLNCAASGGIFRGYAMVWYRQAPGKERELVATITYSGTSTYYADSVKGRFTISRDYAKNTVYLQMNSLKPEYTAVYYCNADWWFKYDYWGQGTQVTVSS | low polyreactivity
QDQLVESGGGLVQAGGSLRLSCAASGFIFALYAMGWYRQAPGKERELVAAINWSGGRTYYADSVKGRFTISRDNAKNTVYLQMNSLKPEDTAVYYCNRRAFSPYAANYYYWGQGTQVTVSS | high polyreactivity
QVQLVESGGGLVQAGGSLRLSCAASGSIFDVNAMGWYRQAPGKERELVAAISQRGTRTYYADSVKGRFTISRDYAKNTVYLQMNSLTPEDTAVYYCNRGGWRQYDSWGQGTQVTVSS | high polyreactivity
QVQLVESGGGLVQAGGSLRLSCAASGYIFYDNAMGWYRQAPGKERELVAAISASGGDTYYADSVKGRFTISRDNAKNTVYLQMNSLKPEDTAVYYCAADLITYAMEFWGQGTQVTVSS | low polyreactivity
QVQLVESGGGLDQAGGSLRLSCAPSGSIFGSYAMGWYRQAPGKERELVAAIRRSSASTYYADSVKGRFTISRDNAKNTVYLQMNSLKPEDTAVYYCATQSYSDYGYRYRYAAYDYWGQGTQVTVSS | high polyreactivity
QVQLVESGGGLVQAGGSLRLSCAASGSTFKTYTMGWYRQAPGKEREFVAGITSGGSTSYADSVKGRFTISRDNAKNTVYLQMNSLKQEDTAVYYCAAPDGDTSFSDQAYDYWGQGTQVTVSS | low polyreactivity
QVQLVESGGGLVQAGGSLRLSCSAYGRTFNSYAMGWYRQAPGKERELVATISSGGSTKYADSVKGRFTISRDNAKNTVYLQMNSLKPEDTAVYYCNKVFPNLYIYVVRGLIEMDYWGQGTQVTVSS | low polyreactivity
QVQLVESGGGLVQAGGSLRLSCAASGRILSPYAMGWYRQAPGKERELVAVINTSGGRTYYADSVKGRFTISRDNAKNTVYLQMNSLKPEDTAVYYCAARERKVQYDYWGQGTQVTVSS | high polyreactivity
QVQLVESGGGLVQAGGSLRLSCAASGSTFYPYFMGWYREAPGKERELVAAITYRGSTYYADSVKGRFTISRDNAKYTVYLQMNSLKPEDTAVYYCAAAVYAIDYTYYYWGQGTQVTVSS | high polyreactivity
QVQLVESGGGLVQAGGSLRLSCAASGRTFFGYAMGWCRQARGKEREFVAAISGSGGSTYYADSVKGRFTISRDYAKNTVYFKMNSLKPEDTAVYYCNAEYWGEYYYFGQGTQVTVSS | low polyreactivity
QVQLVESGGGLVQAGGSLRLSCAASGITFSGYDMGWYRQAPGKERELVADITISTGSTYYADSVKGRFTISRDNANNTVYLQMNSLKPEDTAVYYCAADWQQDRTVVLPSWGHAYDSWGQGTQVTVSS | low polyreactivity
QVQLVESGGGLVQAGGSLRLSCAASGSIFESYAMGWYRQAPGKERELVAAITKRGGSTYYADSVKGRFTISRDNAKNTVYLQMNSLKPEDTAVYYCNARWPGIGPIYDYWGQGTQVTVSS | low polyreactivity
QVQLVESGGGLVQAGGSLRLSCAASGNTFLVNVMGWYRQAPGKERELVASITINDGSTYYADSVKGRFTISRDNAKNTVYLQMNSLKPDDTAVYYCAADGVVPGRFFWPAHEYDYWGQGTQVTVSS | low polyreactivity
QVQLVESGGGLVQAGGSLRLSCAASGLISVIYAMGWYRQAPGKERELVAAISWRGANTYYADSVKGRFTISRDNAKNTVYLQMNSLKPEDTAVYYCNAVLYVWFAPYRYDYWGQGTQVTVSS | high polyreactivity
QVQHVESGGGLVQAGGSLRLSCAASGITFGDNDMGWYRQAPGKERELVASISSGGSTTYADSVKGRFTISRDNAKNTVYLQMNSLKPEDTAVYYCNADYGSSVEYNYWGQGTKVTVSS | low polyreactivity

Sequence | polyreactivity (PSR sort gate)
QVQLVESGGGLVQAGGSLRLSCAASGSIFTYYTMGWYRPAPGKERELVAAISNRGGSTYYADSVKGRFTISRDNSKITVYLQMNSLKPEDTAVYYCNKDVGVAVEMAYWGQGTQVTVSS | high polyreactivity
QVQLVESGGGLVQAGGSLRLSCAASGSIFKINAMGWYRQAPGKERELVAAITRSGGSTYYADSVKGRFTISRDNAKNTVYLQMNSLKPEDTAVYYCNASTSRRTSLSSRFYYWGQGTQVTVSS | high polyreactivity
QVQLVESGGGLVQAGGSLRLSCAASGFIFVRNAMGWYRQAPGKERELVAAITGRGGRTYYADSVKGRFTISRDNAKNTVYLQMNSLKPEVTAVYYCAIDSPDDHFGYWGQGTQVTVSS | high polyreactivity
QVQLVESGGGLVQAGGSLRLSCAASGRIFGRYAMGWYRQAPGTERELVAAITSGGRTSYADSVKGRFTISRDNAKNTVDLQMNSLKPEDTAVYYCNVVSRNSIRFDYWGQGTQVTVSS | high polyreactivity
QVQLVESGGGLVQAGGSLRLSCAASGLIFFFYAMGWYRQAPGKERELVAAISSGGTTNYADSVKGRFTISRDNAKNTVYLQMNSLKPEDTAVYYCAARPSTYWSLGQHYGISGYWGQGTQVTVSS | low polyreactivity
QVQLVESGGGLVPAGGSLRLSCAASGIIFGTYAMGWYRQEPGKERELVAAIRRTGTGTYYADSVKGRFTISRDNAKNTVYLQMNSLKPEDTAVYYCNVVRSYAYDYWGQGTQVTVSS | high polyreactivity
QVQLVESGGGLVQAGGSLRLSCAASGRTFYEYTMGWYRQAPGKERELVAAITWSVGSTYYADSVKGRFTISRDNAKNTVYLQMNSLKPEDTAVYYCAAYYYVWYYYWGQGTQVTVSS | low polyreactivity
QVQLVESGGCLVQAGGSLRLSCAASGIIFSGYAMGWYRQAPGKERELVAAISSRGGGPYYADSVKGRFTISRDNAKKTVYLQMNSLKPEDTAVYYCNRVAFTYNYWGQGTQVTVTS | high polyreactivity
QVQLVESGGGLVQAGGSLRLSCAASGRIFGYYTMGWYRQAPGKERELVATITGGGGSTYYADSVKGRFTISRDNAKNTVYLQMNSLKPEDTAVYYCAKRNWKYVSHRHSYYETYDYWGQGTQVTVSS | high polyreactivity
QVQLVESGGGLVQAGGSLRLSCAASGFTLGGNAMGWYRQAPGKERELVAAITFSGGSTYYADSVKGRFTISRDNAKNIVYLQMNSLKPEDTAVYYCAKTHGYYYYYTYDYWGQGTQVTVSS | low polyreactivity
QVQLVESGGGLVQAGASLRLSCAASGRIFSFYAMGWYRQAPGKERELVAAISSGGNTYYADSVKGRFTISRDNAKNTVYLQMNSLKPEDTAVYYCATGYRKLSSRYGYWGQGTQVTVSS | high polyreactivity
QFQLVESGGGLVQAGGILRLSCAASGRIFKYYAMGWYRQEPGKERELVAAISRGGSTYYADSVKGRFTISRDNAKNTVYLQMNSLKPEDSAVYYCNAYRHGYVAYRRYDYWGQGTQVTVSS | high polyreactivity
QVQLVESGGGLVQAGGSLRLSCAASGSIFCYYAMGWYRQAPGKERELVAAINSGVRTYYADSVKGRFTISRDNAKNTVYLQMISLKPEDTAVYYCAARYIFKGLRYGYWGQGTQVTVSS | high polyreactivity
QVQLVESGGGLVQAGGSLRLSCAASGSTFASNAMGWDRQAPGKERELVAVITWRGDRTYYADSVKGRFTISRDNAKNTVYLQMNSLKPEDTAVYYCAADAYRRYGVGWEDYWGQGTQVTVSS | high polyreactivity
QVQLVESGGGLVQAGGSLRLSCAASGFIFYYYAMGWYSQAPGKERELVARISRGGSTYYADSVKGRFTISRDNAKNTVYLQMNSLKPEDTAVYYCAKVSIARIKTRYNYWGQGTQVTVSS | high polyreactivity
QVKLVESGGGLVQAGGSLRLSCAASGSTFGINARGWYRQAPGKERELVAAITFISGSTNYADSVKGRFTISRDNAKNTVYLQMNSLKPEDTAVYYCAARCTSTPVYSRYGYWGQGTQVTVSS | low polyreactivity
QVQLVESGGGLVQAGGRLRLSCAASGSTFSYYAMGWYRHAPGKERELVAAITSSGSRTYYADSVKGRFTISRDKAKNTVYLQMNSLKPEDTAVYYCAAVYVYRTSYLISLYDYGYWGQGTQVTVSS | high polyreactivity
QVQLVESGGGLVQAGGSLRLSCAASGSTFHRNTLGWYRQAPGKERELVAGISLRGVRTYYADSVKGRFTISRDNAKNSVYLQMNSLKPEDTAVYYCAALYYYGYDYWGQGTQVTVSS | high polyreactivity
QVQLVESRGGLVQAGGSLRLTCAASGFIFKGYAMGWYRQEPGTERELVAAISYSGGNTYYADSVKGRFTISRDNAKNTVYLQMNSLKPEDTAVYYCAVRKRKVLGMYYWGQGTQVTVSS | high polyreactivity
QVQLVESGGGLVQAGGSLRLSCAASGRISVKYAMGWYRQAPGKERELVAANDSSGGSTSYADSVKGRFTISRDNAKNTVYLQMNSLKPEDTAVYYCADDTWYRAGYFVFYYDYWGQGTQVTVSS | low polyreactivity
QVQLVESGGGLVQAGGSLRLSCAASGFTFNPNAMGWYRQAPGKERELVAAITWSSGRTYYADSVKGRFTISRDNAKNTVYLQMNSLKPEDTAVYYCAARGYSYNYDYWGQGTQVTVSS | high polyreactivity
